Measured values taken from patent US20220356230A1.

The substances below were run against VSV G protein on VSV delta G pseudotyped virus-like particles (Vesicular stomatitis virus) (UniProt P03522).
Work on mAb10933 (antibody) yielded a VSV-VLP Binding Signal (RLU) of 507 RLU. Substance mAb10934 (antibody) has a VSV-VLP Binding Signal (RLU) of 3880 RLU. mAb10936 (antibody) was tested, and the VSV-VLP Binding Signal (RLU) was 2320 RLU. With mAb10987 (antibody) the VSV-VLP Binding Signal (RLU) was 1840 RLU.
